Assay results as given in PMC8293630.
Each block holds one substance with its values, some of them ahead of it.

Columns and labels:
[1] = target: 1G4 TCRαβ wild type (HLA-A2-restricted TCR specific for NY-ESO-1 157-165), β-HA and α-FLAG; conditions: scale: nM
[2] = target: 1G4 TCRαβ with βA291 (αWT, β Y291A), β-HA and α-FLAG; conditions: scale: nM
[3] = target: 1G4 TCRαβ with βA291 (αWT, β Y291A), β-HA and α-FLAG; test: co-IP; DDM stability assay (DSA): J76 cells lysed in 0.5% DDM, 150 mM NaCl, 20 mM Tris pH 8.0, 30 min on ice; post-nuclear lysate on anti-HA agarose beads (β-HA) 1 h at 4°C; quantitative immunoblot of β (HA), ε, γ, δ, ζ; ratios normalised to WT; also after A770041 treatment of the cells
[4] = target: QM-α TCRαβ (1G4 variant with mutations in αCDR2, βCDR2 and βCDR3), β-HA, in J76 cells; test: pull-down; ζ recovered with ligand-engaged TCR: (9V-A2)4-His bound to intact cells (37°C or 0°C, ± A770041), 0.5% DDM lysis, capture on HisPur cobalt resin; ζ/β2 compared with non-stimulated anti-HA pull-down (= 1)
[5] = target: wtc51 TCRαβ (1G4 variant with four mutations in βCDR2), β-HA, in J76 cells; test: as above
[6] = target: 1G4 TCRαβ wild type (HLA-A2-restricted TCR specific for NY-ESO-1 157-165), β-HA and α-FLAG; test: co-IP; DDM stability assay (DSA): J76 cells lysed in 0.5% DDM, 150 mM NaCl, 20 mM Tris pH 8.0, 30 min on ice; post-nuclear lysate on anti-HA agarose beads (β-HA) 1 h at 4°C; quantitative immunoblot of β (HA), ε, γ, δ, ζ; ratios normalised to WT; also after A770041 treatment of the cells
[7] = target: wtc51 TCRαβ (1G4 variant with four mutations in βCDR2), β-HA, in J76 cells

pErk MFI (flow cytometry) of CD8- J76 cells against (6V-A2)4 nM, EC50 of the non-linear regression fit [1]: 19.5 | pErk MFI (flow cytometry) of CD8- J76 cells against (6V-A2)4 nM, EC50 of the non-linear regression fit [2]: 19
Substance: 6V-HLA-A2 tetramer on phycoerythrin-conjugated streptavidin (from UniProt P61769 21-119) (peptide-MHC)

reduction of recovery against 1G4-WT [3]: 40%
Substance: CD3γ, endogenous in J76 Jurkat cells (from UniProt P09693 23-182) (natural protein)

reduction of recovery against 1G4-WT [3]: 10%
Substance: CD3δ, endogenous in J76 Jurkat cells (from UniProt P04234 22-171) (natural protein)

ε/βT ratio (1G4-WT = 1) (ratio to 1G4-WT) [3]: 0.5
Substance: CD3ε, endogenous in J76 Jurkat cells (from UniProt P07766 23-207) (natural protein)

reduction of the ζ/β2 ratio of liganded against unliganded TCR [4]: 40% | ζ/β2 ratio of liganded against unliganded TCR (= 1) (ratio to unliganded wtc51) [5]: 0.5 | ζ/β2 ratio (1G4-WT = 1) (ratio to 1G4-WT) [3]: 0.2
Substance: CD3ζ (ζζ), endogenous in J76 Jurkat cells (from UniProt P20963-1 22-164) (natural protein)

ζ/β2 ratio (ζWT = 1) [6]: 0.05 ratio to ζWT
Substance: CD3ζ I38A expressed in J76-1G4WT-ζKO cells (from UniProt P20963-1 22-164) (natural protein)

ζ/β2 ratio (ζWT = 1) [6]: 0.25 ratio to ζWT
Substance: CD3ζ I41A expressed in J76-1G4WT-ζKO cells (from UniProt P20963-1 22-164) (natural protein)

pErk immunoblot of J76 wtc51 cells, dose response of sm-9V-A2 (Figure S7F) [7]: 3 nM
Substance: soluble monovalent 9V-HLA-A2 (biotinylated pMHC monomer) (from UniProt P61769 21-119) (peptide-MHC)
